Measured values from paper PMC2683204.

Target: Fluorescein-maleamide labeled purified FN (UniProt P02751)
Assay: SDS-PAGE, non-reducing against reducing

Fluorescein-maleamide labeled purified FN (from UniProt P02751 32-2477) (natural protein)
stoichiometry N: 2
